# Reference: the Immune Epitope Database (IEDB)
# What was measured:
# [1] = molecular target: HLA-B*15:01; assay: IEDB peptide-MHC binding, purified MHC/competitive/radioactivity; filed as Kd, often an IC50 or EC50 that approximates it; ≥ and ≤ were set here for values at or beyond the usual limits of such assays
# [2] = molecular target: HLA-A*01:01; assay: as above
# [3] = molecular target: HLA-A*30:02; assay: as above
# [4] = molecular target: HLA-A*23:01; assay: as above
# [5] = molecular target: HLA-A*24:02; assay: as above
# [6] = molecular target: HLA-A*29:02; assay: as above
# [7] = molecular target: HLA-A*26:01; assay: as above
# [8] = molecular target: HLA-A*32:01; assay: as above
# [9] = molecular target: HLA-A*68:01; assay: as above; conditions: source organism: Vaccinia virus WR
# [10] = molecular target: HLA-A*31:01; assay: as above
# [11] = molecular target: HLA-A*03:01; assay: as above; conditions: source organism: Vaccinia virus WR
# [12] = molecular target: HLA-A*11:01; assay: as above; conditions: source organism: Vaccinia virus WR
# [13] = molecular target: HLA-A*33:01; assay: as above
# [14] = molecular target: HLA-B*07:02; assay: as above
# [15] = molecular target: HLA-B*44:02; assay: as above
# [16] = molecular target: HLA-A*24:02; assay: IEDB peptide-MHC binding, purified MHC/competitive/fluorescence; ≥ and ≤ were set here for values at or beyond the usual limits of such assays; conditions: source organism: Vaccinia virus WR
# [17] = molecular target: HLA-A*02:01; assay: as above; conditions: source organism: Vaccinia virus WR
# [18] = molecular target: HLA-B*08:01; assay: IEDB peptide-MHC binding, purified MHC/competitive/radioactivity; filed as Kd, often an IC50 or EC50 that approximates it; ≥ and ≤ were set here for values at or beyond the usual limits of such assays; conditions: source organism: Vaccinia virus WR
# [19] = molecular target: HLA-A*30:01; assay: as above
# [20] = molecular target: HLA-B*51:01; assay: as above
# [21] = molecular target: HLA-B*44:03; assay: as above; conditions: source organism: Dengue virus 2 Peru/IQT2913/1996
# [22] = source organism: Vaccinia virus WR
# [23] = source organism: Mammarenavirus juninense
# [24] = source organism: Dengue virus 4 Philippines/H241/1956
# [25] = source organism: Dengue virus 1 Brazil/97-11/1997
# [26] = source organism: Dengue virus 2 Jamaica/1409/1983
# [27] = source organism: SARS coronavirus Tor2
# [28] = source organism: Dengue virus 4 Dominica/814669/1981
# [29] = source organism: Mammarenavirus guanaritoense
# [30] = source organism: Mammarenavirus caliense
# [31] = source organism: Vaccinia virus Copenhagen
# [32] = source organism: Mammarenavirus lassaense
# [33] = source organism: Dengue virus 2 Peru/IQT2913/1996
sequence,measurement,setting,value
KAAKRISHG,Kd,[1]; [22],7690 nM
KAEVSMHEV,Kd,[2]; [23],17500 nM
same,Kd,[3]; [23],≥ 51900 nM
same,Kd,[4]; [23],≥ 68600 nM
same,Kd,[5]; [23],≥ 77500 nM
same,Kd,[6]; [23],≥ 78900 nM
same,Kd,[7]; [23],≥ 77900 nM
KITGNLVQI,Kd,[8]; [24],2710 nM
KLNQLSRKEF,Kd,[1]; source organism: Dengue virus 3 Martinique/1243/1999,70.6 nM
KSYAQMWQLM,Kd,[8]; [25],89.9 nM
KTPVESWEEV,Kd,[8]; [26],1620 nM
KTWGKAKML,Kd,[8]; [26],39.2 nM
KTWMINIMI,Kd,[8]; [22],≥ 77800 nM
LFARTRSMW,Kd,[2]; [27],≥ 78100 nM
same,Kd,[3]; [27],≥ 83300 nM
same,Kd,[4]; [27],488 nM
same,Kd,[5]; [27],146 nM
same,Kd,[6]; [27],10200 nM
same,Kd,[7]; [27],≥ 77900 nM
LVKESMASLK,Kd,[9],0.437 nM
same,Kd,[10]; [22],64.5 nM
same,Kd,[11],4.1 nM
same,Kd,[6]; [22],≥ 53600 nM
same,Kd,[12],11.3 nM
same,Kd,[13]; [22],394 nM
LVSLLGSAL,Kd,[14]; [24],44.3 nM
LVSTQEFRY,Kd,[2]; [27],30.8 nM
same,Kd,[3]; [27],5.95 nM
same,Kd,[4]; [27],10900 nM
same,Kd,[5]; [27],12700 nM
same,Kd,[6]; [27],6.84 nM
same,Kd,[7]; [27],1760 nM
MATFKMRPM,Kd,[14]; [25],158 nM
MFGGVSWMIR,Kd,[10]; [28],7.52 nM
same,Kd,[8]; [28],1430 nM
same,Kd,[13]; [28],14.8 nM
MWSFNPETNI,Kd,[2]; [27],≥ 70400 nM
same,Kd,[3]; [27],≥ 24700 nM
same,Kd,[4]; [27],407 nM
same,Kd,[5]; [27],551 nM
same,Kd,[6]; [27],13300 nM
same,Kd,[7]; [27],≥ 39100 nM
MYASALVLL,Kd,[2]; [27],≥ 66000 nM
same,Kd,[3]; [27],≥ 33500 nM
same,Kd,[4]; [27],≥ 46400 nM
same,Kd,[5]; [27],≥ 65300 nM
same,Kd,[6]; [27],≥ 22500 nM
same,Kd,[7]; [27],4620 nM
NDLKYSWKTW,Kd,[15]; [24],2720 nM
same,Kd,[8]; [24],8890 nM
NPNMTDKTPV,Kd,[14]; [24],118 nM
NVEYRFLVI,IC50,[16],13700 nM
same,IC50,[17],≥ 144000 nM
same,Kd,[18],235 nM
NYLRKRVMF,Kd,[2]; [27],≥ 78100 nM
same,Kd,[3]; [27],9150 nM
same,Kd,[4]; [27],11200 nM
same,Kd,[5]; [27],18000 nM
same,Kd,[6]; [27],3270 nM
same,Kd,[7]; [27],≥ 60200 nM
PTMEIEDQEY,Kd,[2]; [29],17.2 nM
same,Kd,[3]; [29],8840 nM
same,Kd,[19]; [29],≥ 70400 nM
same,Kd,[8]; [29],≥ 49800 nM
same,Kd,[6]; [29],11300 nM
same,Kd,[7]; [29],1140 nM
PYENLLYKI,Kd,[4]; [30],9.86 nM
same,Kd,[5]; [30],253 nM
same,Kd,[6]; [30],≥ 52400 nM
QPHWIAASII,Kd,[14]; [26],47.5 nM
same,Kd,[20]; [26],468 nM
RLGYILEEI,Kd,[8]; [28],1110 nM
RPVKEKEENL,Kd,[14]; [25],761 nM
RQIFIHYSV,Kd,[8]; [31],1.04 nM
RTYCIEASI,Kd,[8]; [24],19.2 nM
RVRNIIASI,Kd,[18],21.7 nM
same,Kd,[19]; [22],0.103 nM
same,Kd,[8]; [22],1.04 nM
RVYVGNVAW,Kd,[8]; [22],1.08 nM
RYWYLNHTV,Kd,[2]; [32],≥ 28200 nM
same,Kd,[3]; [32],0.603 nM
same,Kd,[4]; [32],15.3 nM
same,Kd,[5]; [32],76.8 nM
same,Kd,[6]; [32],≥ 38600 nM
same,Kd,[7]; [32],≥ 77900 nM
SPAAAQKAT,Kd,[14]; [24],14.3 nM
SPAAAQKATL,Kd,[14]; [24],3.95 nM
SPIINRKGKV,Kd,[14]; [24],248 nM
same,Kd,[20]; [24],≥ 69600 nM
SPNPTIEAGR,Kd,[14]; [26],1400 nM
SSSPTILDNY,Kd,[2]; [29],22.6 nM
same,Kd,[3]; [29],42.5 nM
same,Kd,[19]; [29],≥ 21000 nM
same,Kd,[8]; [29],≥ 69900 nM
same,Kd,[6]; [29],99 nM
same,Kd,[7]; [29],17800 nM
STLIFFVII,Kd,[8]; [22],17.8 nM
TELRYSWKTW,Kd,[21],33 nM
same,Kd,[15]; [33],7.9 nM
same,Kd,[8]; [33],2420 nM
YSIFLIFSI,Kd,[8]; [31],951 nM
